Changes are numbered by the printed parent chain. In names and notes the source's numbering stands.
B1: v29675 (antibody, V domains shown)
VH: EVQLVESGGGLVQPGGSLRLSCAASGFTISNNYYMCWVRQAPGKGLEWIACIYGGISGRTYYADSAKGRFTISKDSSNTVYLQMNSLRAEDTAVYYCVRGYVGTSNLWGQGTLVTVSS
VL: DIQMTQSPSSLSASVGDRVTITCQASQSIYSSLAWYQQKPGKAPKLLIYDASHLASGVPSRFSGSRYGTDFTLTISSVQPEDFATYYCQGGWYSSAATYVPNTFGGGTKVEVK
notes: One-armed antibody, humanized 8K22 (H4L3 of v23807) Fab on a heterodimeric IgG1 Fc; also called N-term Parent Fab; Parent Fab antibody
B2: v29677 (scFv)
scFv: DIQMTQSPSSLSASVGDRVTITCQASQSIYSSLAWYQQKPGKAPKLLIYDASHLASGVPSRFSGSRYGTDFTLTISSVQPEDFATYYCQGGWYSSAATYVPNTFGGGTKVEVKGGSGGGSGGGSGGGSGGGSGEVQLVESGGGLVQPGGSLRLSCAASGFTISNNYYMCWVRQAPGKGLEWIACIYGGISGRTYYADSAKGRFTISKDSSNTVYLQMNSLRAEDTAVYYCVRGYVGTSNLWGQGTLVTVSS
notes: One-armed, scFv at the N-terminus of Het FcA (Ala-Ala linker); also called N-term VL-(long)-VH
B3: v29680 (scFv)
scFv: B2 scFv
notes: One-armed, scFv at the C-terminus of Het FcA (GGGG linker); also called C-term VL-(long)-VH
B4: v29684 (scFv)
scFv: B2 scFv with G106C, G178C
notes: One-armed, scFv at the C-terminus of Het FcA; VL-G100C and VH-G44C already in the entry; also called C-term VL-(long)-VH + disulfide
B5: v29679 (scFv)
scFv: EVQLVESGGGLVQPGGSLRLSCAASGFTISNNYYMCWVRQAPGKGLEWIACIYGGISGRTYYADSAKGRFTISKDSSNTVYLQMNSLRAEDTAVYYCVRGYVGTSNLWGQGTLVTVSSGGGGSGGGGSGGGGSDIQMTQSPSSLSASVGDRVTITCQASQSIYSSLAWYQQKPGKAPKLLIYDASHLASGVPSRFSGSRYGTDFTLTISSVQPEDFATYYCQGGWYSSAATYVPNTFGGGTKVEVK
notes: One-armed, scFv at the C-terminus of Het FcA (GGGG linker); also called C-term VH-(short)-VL
B6: v29683 (scFv)
scFv: B5 scFv with G45C, G239C
notes: One-armed, scFv at the C-terminus of Het FcA; VL-G100C and VH-G44C already in the entry; also called C-term VH-(short)-VL + disulfide
B7: v29681 (scFv)
scFv: EVQLVESGGGLVQPGGSLRLSCAASGFTISNNYYMCWVRQAPGKGLEWIACIYGGISGRTYYADSAKGRFTISKDSSNTVYLQMNSLRAEDTAVYYCVRGYVGTSNLWGQGTLVTVSSGGSGGGSGGGSGGGSGGGSGDIQMTQSPSSLSASVGDRVTITCQASQSIYSSLAWYQQKPGKAPKLLIYDASHLASGVPSRFSGSRYGTDFTLTISSVQPEDFATYYCQGGWYSSAATYVPNTFGGGTKVEVK
notes: One-armed, scFv at the C-terminus of Het FcA (GGGG linker); also called C-term VH-(long)-VL
B8: v29685 (scFv)
scFv: B7 scFv with G45C, G244C
notes: One-armed, scFv at the C-terminus of Het FcA; VL-G100C and VH-G44C already in the entry; also called C-term VH-(long)-VL + disulfide
B9: v29676 (scFv)
scFv: DIQMTQSPSSLSASVGDRVTITCQASQSIYSSLAWYQQKPGKAPKLLIYDASHLASGVPSRFSGSRYGTDFTLTISSVQPEDFATYYCQGGWYSSAATYVPNTFGGGTKVEVKGGGGSGGGGSGGGGSEVQLVESGGGLVQPGGSLRLSCAASGFTISNNYYMCWVRQAPGKGLEWIACIYGGISGRTYYADSAKGRFTISKDSSNTVYLQMNSLRAEDTAVYYCVRGYVGTSNLWGQGTLVTVSS
notes: One-armed: scFv fused by an Ala-Ala linker to the N-terminus (hinge) of Het FcA, paired with Het FcB Fc; also called N-term VL-(short)-VH
B10: v29678 (scFv)
scFv: B9 scFv
notes: also called C-term VL-(short)-VH
B11: v29682 (scFv)
scFv: B9 scFv with G106C, G173C
notes: One-armed, scFv at the C-terminus of Het FcA; VL-G100C and VH-G44C (Kabat) already in the entry; also called C-term VL-(short)-VH + disulfide

Target: T1, recombinant His-tagged human FRα (human, UniProt P15328 25-234)
T1 construct: Bought protein; also called hFRα; FRα-HIS
Experiment: BLI, n=2
Protocol: The assay buffer used was KB buffer (kinetics buffer, composed of PBS pH 7.4, 0.1% BSA, 0.02% Tween 20, 0.05% sodium azide) supplemented with 0.06% Tween 20. The experiment was conducted at 25° C. with a shake speed of 1000 rpm.
Data analysis was performed using the Data analysis software 9.0′ (ForteBio). The reference-subtracted binding curves were globally fitted to the 1:1 interaction model to generate the binding kinetic parameters kₒₙ, koff, and the dissociation constant KD.
All parameters remained the same except for the dissociation phase which was recorded for 1500 s.

T1 sequence (P15328 25-234 limits assumed): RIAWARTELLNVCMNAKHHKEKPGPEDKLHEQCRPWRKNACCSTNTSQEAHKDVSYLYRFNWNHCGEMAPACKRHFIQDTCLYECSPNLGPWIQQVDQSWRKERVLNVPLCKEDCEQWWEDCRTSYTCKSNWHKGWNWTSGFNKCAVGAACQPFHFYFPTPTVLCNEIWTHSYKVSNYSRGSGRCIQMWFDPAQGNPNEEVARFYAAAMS

Kd | Binder
4.1 nM | B1
5 nM | B2
1.8 nM | B3
0.88 nM | B4
0.39 nM | B5
1.1 nM | B6
2.6 nM | B7
4.2 nM | B8
3.9 nM | B9
5.1 nM | B10
2.1 nM | B11

Reference: patent US20230052369A1 (Zymeworks, published 2023)
